The record followed here is patent US20040265295.

The data set has as its target T1, His-PIPKIγ661 C-terminus, wild-type (439-661).
T1 chain: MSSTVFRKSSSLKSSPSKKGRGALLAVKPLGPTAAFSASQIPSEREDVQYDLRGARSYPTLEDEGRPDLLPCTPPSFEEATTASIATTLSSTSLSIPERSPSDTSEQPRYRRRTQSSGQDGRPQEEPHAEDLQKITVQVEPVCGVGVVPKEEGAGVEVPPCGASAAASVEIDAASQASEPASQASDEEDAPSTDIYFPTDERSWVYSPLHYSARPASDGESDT

B1: focal adhesion-associated kinase (FAK) (protein)
chain: MAAAYLDPNLNHTPSSSTKTHLGTGMERSPGAMERVLKVFHHFESSSEPTTWASIIRHGDATDVRGIIQKIVDSHKVKHVACYGFRLSHLRSEEVHWLHVDMGVSSVREKYELAHPPEEWKYELRIRYLPKGFLNQFTEDKPTLNFFYQQVKSDYMQEIADQVDQEIALKLGCLEIRRSYWEMRGNALEKKSNYEVLEKDVGLKRFFPKSLLDSVKAKTLRKLIQQTFRQFANLNREESILKFFEILSPVYRFDKECFKCALGSSWIISVELAIGPEEGISYLTDKGCNPTHLADFNQVQTIQYSNSEDKDRKGMLQLKIAGAPEPLTVTAPSLTIAENMADLIDGYCRLVNGATQSFIIRPQKEGERALPSIPKLANSEKQGMRTHAVSVSHCQHKVKKARRFLPLVFCSLEPPPTDEISGDETDDYAEIIDEEDTYTMPSKSYGIDEARDYEIQRERIELGRCIGEGQFGDVHQGVYLSPENPALAVAIKTCKNCTSDSVREKFLQEALTMRQFDHPHIVKLIGVITENPVWIIMELCTLGELRSFLQVRKYSLDLASLILYAYQLSTALAYLESKRFVHRDIAARNVLVSSNDCVKLGDFGLSRYMEDSTYYKASKGKLPIKWMAPESINFRRFTSASDVWMFGVCMWEILMHGVKPFQGVKNNDVIGRIENGERLPMPPNCPPTLYSLMTKCWAYDPSRRPRFTELKAQLSTILEEEKVQQEERMRMESRRQATVSWDSGGSDEAPPKPSRPGYPSPRSSEGFYPSPQHMVQTNHYQVSGYPGSHGIPAMAGSIYQGQASLLDQTELWNHRPQEMSMWQPSVEDSAALDLRGMGQVLPPHLMEERLIRQQQEMEEDQRWLEKEERFLKPDVRLSRGSIDREDGSFQGPTGNQHIYQPVGKPDPAAPPKKPPRPGAPGHLSNLSSISSPADSYNEGVKLQPQEISPPPTANLDRSNDKVYENVTGLVKAVIEMSSKIQPAPPEEYVPMVKEVGLALRTLLATVDETIPALPASTHREIEMAQKLLNSDLGELISKMKLAQQYVMTSLQQEYKKQMLTAAHALAVDAKNLLDVIDQARLKMLGQTRPH
Turning to B1, the “in vitro kinase assay, phosphorylation of the recombinant substrate” value was “while FAK does not”.
